Experimental data published in publication PMC6937246.

Experiments:
purified tubulin dimer [1] = experiment: SPR
purified tubulin dimer [2] = experiment: SPR; VASH1 R222A/C169S; details: complex
purified tubulin dimer [3] = experiment: SPR; VASH1 K168E/C169S; details: complex

Sequence of VASH1-SVBP complex, VASH1 mutated at R222 (Q7L8A9 44-315, change not shown): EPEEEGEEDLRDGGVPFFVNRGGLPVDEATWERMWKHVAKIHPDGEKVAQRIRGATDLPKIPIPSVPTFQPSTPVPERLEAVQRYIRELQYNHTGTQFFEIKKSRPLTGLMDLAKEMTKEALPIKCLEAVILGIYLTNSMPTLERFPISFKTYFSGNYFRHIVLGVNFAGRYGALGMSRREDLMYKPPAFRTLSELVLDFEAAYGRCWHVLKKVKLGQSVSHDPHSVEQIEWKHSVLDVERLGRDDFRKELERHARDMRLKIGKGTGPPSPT
Sequence of VASH1-SVBP complex, VASH1 mutated at R222 (Q8N300 whole entry, change not shown): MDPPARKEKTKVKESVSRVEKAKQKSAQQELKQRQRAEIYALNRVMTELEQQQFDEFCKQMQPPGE
Sequence of VASH1-SVBP complex, VASH1 mutated at K168 (Q7L8A9 44-315, change not shown): as the sequence (Q7L8A9 44-315, change not shown) above
Sequence of VASH1-SVBP complex, VASH1 mutated at K168 (Q8N300 whole entry, change not shown): as the sequence (Q8N300 whole entry, change not shown) above

Row | Substance | Kd (purified tubulin dimer [1]) | further results
1 | VASH1 C169A-SVBP | 990 nM | 
2 | VASH1-SVBP complex, VASH1 mutated at R222 (from UniProt Q7L8A9 44-315; Q8N300 1-66) |  | Kd (purified tubulin dimer [2]): 1400 nM
3 | VASH1 R222E/R223E/C169S-SVBP | 1310 nM | 
4 | VASH1 C169S-SVBP | 470 nM | 
5 | VASH1 H204A/C169S-SVBP | 750 nM | 
6 | VASH1-SVBP complex, VASH1 mutated at K168 (from UniProt Q7L8A9 44-315; Q8N300 1-66) |  | Kd (purified tubulin dimer [3]): 1140 nM
7 | VASH1 S221A/C169S-SVBP | 570 nM | 
